Among the data in PMC10153361, “Mechanism of imidazole inhibition of a GH1 β‐glucosidase” (FEBS Open Bio, 2023) are Km and kcat values, retold here.

Substrate in the data set: O=[N+]([O-])c1ccc(O[C@@H]2O[C@H](CO)[C@@H](O)[C@H](O)[C@H]2O)cc1
The experiment in a line: purified protein. The class given is biochemical, Spodoptera frugiperda. The note with it: 100 mM phosphate pH 6.0, 30 °C.

B1: Sfβgly (GH1 β-glucosidase from Spodoptera frugiperda) (Spodoptera frugiperda) (protein)
chain: QQRRFPDDFLFGTATASYQIEGAWDEDGKGENIWDYMVHNTPEVIRDLSNGDIAADSYHNYKRDVEMMRELGLDAYRFSLSWARILPTGMANEVNPAGIAFYNNYIDEMLKYNITPLITLYHWDLPQKLQELGGFANPLISDWFEDYARVVFENFGDRVKMFITFNEPREICFEGYGSATKAPILNATAMGAYLCAKNLVTAHAKAYYLYDREFRPVQGGQCGITISVNWFGPATPTPEDEMAAELRRQGEWGIYAHPIFSAEGGFPKELSDKIAEKSAQQGYPWSRLPEFTEEEKAFVRGTSDLIGVNHYTAFLVSATERKGPYPVPSLLDDVDTGSWADDSWLKSASAWLTLAPNSIHTALTHLNNLYNKPVFYITENGWSTDESRENSLIDDDRIQYYRASMESLLNCLDDGINLKGYMAWSLMDNFEWMEGYIERFGLYEVDFSDPARTRTPRKAAFVYKHIIKHRVVDYEYEPETMVMTIDEGH
notes: recombinant, E. coli BL21(DE3), vector pET46, Ni-NTA purified; secreted digestive midgut enzyme; catalytic residues E187 and E399
For the protein B1, the Km came out at 1730 ± 40 µM and the kcat came out at 1.33 ± 0.333 s⁻¹.
